Laboratory results from publication doi:10.1101/2021.06.01.446691.

Target: VirB4-like TraB ATPase of the pKM101-encoded type IV secretion system (plasmid pKM101 (carried in E. coli))
Assay: cryo-EM structure

stoichiometry N: 12
Substance: VirB4-like TraB ATPase of the pKM101-encoded type IV secretion system (enzyme)
